Measurements from CN106117361A.

Molecular target: CD3 on Jurkat cells (Jurkat靶标细胞) (UniProt P07766)
Assay: flow cytometry, culture supernatant on Jurkat cells (negative control; TG1 background 132.03)

UniProt P07766, sequence (P07766 23-207): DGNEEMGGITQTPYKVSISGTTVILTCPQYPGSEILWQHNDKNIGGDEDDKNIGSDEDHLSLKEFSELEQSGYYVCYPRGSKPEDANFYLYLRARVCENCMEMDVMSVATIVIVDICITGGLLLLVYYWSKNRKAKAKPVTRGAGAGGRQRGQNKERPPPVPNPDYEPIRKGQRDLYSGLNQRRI

- 结合MFI: 115 MFI
Substance: NC-sdAb(相同形式的非相关性sdAb) (VHH)
